Test results published in publication PMC6086657, “Structure of the human volume regulated anion channel” (eLife, 2018).

Biological target: the molecule itself
Experiment: cryo-EM structure; SWELL1-FLAG homomer in 20 mM Tris pH 8, 150 mM NaCl, 0.05% digitonin, ~8 mg/mL on UltrAuFoil grids; C3 symmetry imposed; ~4 Å map

B1: human SWELL1 (LRRC8A) with a C-terminal FLAG-tag (SWELL1-GGG-FLAG) (natural protein, UniProt Q8IWT6 1-810, looked up)
chain: MIPVTELRYFADTQPAYRILKPWWDVFTDYISIVMLMIAVFGGTLQVTQDKMICLPCKWVTKDSCNDSFRGWAAPGPEPTYPNSTILPTPDTGPTGIKYDLDRHQYNYVDAVCYENRLHWFAKYFPYLVLLHTLIFLACSNFWFKFPRTSSKLEHFVSILLKCFDSPWTTRALSETVVEESDPKPAFSKMNGSMDKKSSTVSEDVEATVPMLQRTKSRIEQGIVDRSETGVLDKKEGEQAKALFEKVKKFRTHVEEGDIVYRLYMRQTIIKVIKFILIICYTVYYVHNIKFDVDCTVDIESLTGYRTYRCAHPLATLFKILASFYISLVIFYGLICMYTLWWMLRRSLKKYSFESIREESSYSDIPDVKNDFAFMLHLIDQYDPLYSKRFAVFLSEVSENKLRQLNLNNEWTLDKLRQRLTKNAQDKLELHLFMLSGIPDTVFDLVELEVLKLELIPDVTIPPSIAQLTGLKELWLYHTAAKIEAPALAFLRENLRALHIKFTDIKEIPLWIYSLKTLEELHLTGNLSAENNRYIVIDGLRELKRLKVLRLKSNLSKLPQVVTDVGVHLQKLSINNEGTKLIVLNSLKKMANLTELELIRCDLERIPHSIFSLHNLQEIDLKDNNLKTIEEIISFQHLHRLTCLKLWYNHIAYIPIQIGNLTNLERLYLNRNKIEKIPTQLFYCRKLRYLDLSHNNLTFLPADIGLLQNLQNLAITANRIETLPPELFQCRKLRALHLGNNVLQSLPSRVGELTNLTQIELRGNRLECLPVELGECPLLKRSGLVVEEDLFNTLPPEVKERLWRADKEQA
notes: SWELL1 (LRRC8A), human, UniProt Q8IWT6, cDNA Origene #RC208632; the abstract calls it full-length; the model holds residues 15-68, 94-174, 232-802 (inner subunit) and 15-68, 94-175, 214-802 (outer subunit); Homohexamer (trimer of dimers); The solubilization buffer held 2 mg/mL iodoacetamide; One endogenous SWELL1 allele remained intact in the expression cell line; also called SWELL1-FLAG; …
stoichiometry N: 6
